Experimental data from patent publication US20040203067.

Target: STAT-3 (endogenous, in 32Dcl3-derived cells) (UniProt P42227)
Sequence (P42227 2-770): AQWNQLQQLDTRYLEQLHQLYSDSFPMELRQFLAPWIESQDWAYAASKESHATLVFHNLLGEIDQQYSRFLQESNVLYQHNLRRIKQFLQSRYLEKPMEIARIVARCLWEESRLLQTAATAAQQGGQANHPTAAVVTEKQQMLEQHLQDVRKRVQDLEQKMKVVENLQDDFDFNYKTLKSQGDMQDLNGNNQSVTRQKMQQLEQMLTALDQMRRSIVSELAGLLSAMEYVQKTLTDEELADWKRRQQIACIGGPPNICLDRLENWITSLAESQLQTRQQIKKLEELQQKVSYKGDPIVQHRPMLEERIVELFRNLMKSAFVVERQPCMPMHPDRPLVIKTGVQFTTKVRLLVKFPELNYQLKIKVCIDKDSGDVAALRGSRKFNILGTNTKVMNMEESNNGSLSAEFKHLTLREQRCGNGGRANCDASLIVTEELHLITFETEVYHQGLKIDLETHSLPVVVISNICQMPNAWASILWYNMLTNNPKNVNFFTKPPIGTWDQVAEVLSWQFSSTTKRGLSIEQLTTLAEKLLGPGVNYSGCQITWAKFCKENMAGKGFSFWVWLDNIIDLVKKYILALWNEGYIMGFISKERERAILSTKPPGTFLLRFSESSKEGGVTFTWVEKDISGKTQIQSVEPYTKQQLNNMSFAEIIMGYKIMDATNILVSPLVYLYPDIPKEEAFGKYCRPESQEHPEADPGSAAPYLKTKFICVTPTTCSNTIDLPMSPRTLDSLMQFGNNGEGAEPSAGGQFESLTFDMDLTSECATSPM

c-Src (endogenous, activated, in IL-3 stimulated 32Dcl3 cells)
tyrosine phosphorylation of STAT-3 (4G10 Western blot of STAT-3 immunoprecipitates): phosphorylation of STAT-3 following IL-3 stimulation of 32Dcl3 cells is blocked by AMSrc
